Reference: the DeepSol protein solubility set

Assay: soluble on expression in E. coli; label from the status in PepcDB or PDB records

Row | Sequence | soluble on expression in E. coli
1 | MGSDKIHHHHHHMGKSKRKILNWKQYNQALVNRGSVTFWLDKSAINAWHCKAHHGGRGRGFQFSDTAIETALMLKGVFKLSLRATEGFINSLFRLMDVPLAAPDYTCISKRAKTVEVKYRNPCRGPVTHLVVDSTGLKVYGEGEWKTRKHGKERRRTWRKLHLAIDADTHDVVSAEVSLVNVADNEVLPTMLNPLRRKVNQVSADGAYDTKECHKLLRHKGAKPTIPPRSNAGYWEDGHPRNEAVEALKSGTLKQWKDDNDYHQRSLSETAMYRYKQLISSKLSLRDYNAQVGEALAGVKAMNKVIGLGMPVRQTTA | not soluble
2 | MSLNTGINCPFDCGLCARHRSHTNLLNIVLTNRCNLSCWYCFFYAREGEPVYEPTLEQIRMMLRNAKKENPIGANAVQFTGGEPTLRDDLIEIIKIAKEEGYDHVQLNTDGIRLAFEPELVKKIREAGVNTLYLSYDGMTPQTNWKNHWEIPLIFENVRKAGGPGIVLVPTLIRNVNDHEAGAIINFGLNHLDIVRGVNFQPISLVGRVPKKERQRFRITIAGAIKKIEEQTNGAISRDDWYPIPIAGYIARFFEAFTGKHYYMTSHYACGAATYVFLDKEEKKVIPIPRFIDVEGFVEFLVEKAEEIERARFKGLAKLKAIGETVFIKFKQFYDEKYAPKGLDVLGLIKNAFMHGNYDALGQFHTKTLFLGMMHFMDEYNYDVERVERCVIHYAMPDGRIVPFCTFNVIPEIYRDKVQRQFSYSWEEWKKLHPDWDYKKDKYFRTREFVEKMKNSELYRKTYIDIVNYFEEGHHHHHH | soluble
3 | MSLKKTQQKEIENVTNITGVRQIELWRRDDLQHPRLDEVAEEVPVALVYNGISHVVMMASPKDLEYFALGFSLSEGIIESPRDIFGMDVVPSCNGLEVQIELSSRRFMGLKERRRALAGRTGCGVCGVEQLNDIGKPVQPLPFTQTFDLNKLDDALRHLNDFQPVGQLTGCTHAAAWMLPSGELVGGHEDVGRHVALDKLLGRRSQEGESWQQGAVLVSSRASYEMVQKSAMCGVEILFAVSAATTLAVEVAERCNLTLVGFCKPGRATVYTHPQRLSNEGHHHHHH | soluble
4 | KDGDFLDMDWHGPNDADAPLVLVLHGLTGSSNSPYVAGLQKAMAAKGWASVALNWRGCSGEPNLLSRSYHSGASEDLAEVIAHLRLLRPLAALYAVGYSLGGNVLLKYLGESGKHSELLGAVAVSVPFRLDECANRIGQGFSKVYQRHFMREMLTYIRDKQQRFQHEGLTEGLAELSALGSLENMRTFWDFDGRVTAPLHGFVDATDYYRRASSRYYLGQIETPTLIIQSRDDPFVFPHSLPEPGELSACTEFELHAKGGHVGFVDGSLRNPTYYLERRIPSWL | not soluble
5 | LKKKVKRTCSNCLKGTAININNDILCIEKGIVSSDYVCSKHRFMPSFSSIKRKIHTCIDCEHFIIFDTSNVEDRAFGICELFTVRKYDGKNKKVCSKFVKRVKKEVC | not soluble
6 | MWAVIRMRTFRRSTRNAVSRMRKPKPRASAKQRSLERHFGSRQPTKNKFLNAIYWGIRRCQYFLCCYDDEVEDELEDASANPFNTQPPGLDQLVQLTGFNRKWIMFMYRNFKQKCSNGRMTDSQWRILFRSIFPQANDSAFIDRLYAAIVKKKQHPQITFEDLILCLWELSEDGKTSEMGNYHINSSARAQFAFQLMDEEGKGRVDEPGFYKYTRCVFALTAVNKPCTDQIIDASTIGLPASSIYRSTSVDDVLKPMSPLIARFSSKRFKELDTDRDGFITVRDIERELEIQKNEAICLKSLKDFSFEDLKNEEDDDDEDDQDTNPLLSESSSFKKDV | not soluble
7 | MTEISPKILETSSEPPPKKKRANFTLEFKNEVIRFAEQTNNCQAQKKYGVARACIQRWRHLKHELAFESEGKQGAKRLGGAGRPLKNVELDEKVEDWIASKNGKISGKDIKEYAKKINGNADFKASNGWLQRFMIRHGLIKARSSSPKTPSTSDGTTDKTLEESLFELINSDEWKNISEGNVSGFLEDFNAENGETSLKVEGNNSTTTESEVKQKPNESSKLPEINIFQQLEMLIKDSNGKEDSVEETETSVNRSPKSY | not soluble
8 | MKLCGKLANITTVDYGGIACHAGVDRRISLHNFTISLPESGNPMSATFDPDNLRASLLALNVIDPLSLDGQAYQRFYGLAGLGGENVVRSWLGRLDVDGYEIVGQVWLPESPVATLFLFHGFYDHMGLYRHVIEWALTQGFAVISCDLPGHGLSSGSRASINDFAEYQVVLQRLLLEAGSLGLPHPWHLCGQSTGGAIVIDHLLHQGAESPAQGEVILLAPLVRPRAWGWSRFSYRLLKPFVSGIARRFTENSNAPAFLPFLLADPLQPRRLPTAWVGALAQWIVRVESAPRSLRSPIIIQGDADMTVDWSHNLAVLKDKFSQPHILMLGHARHHLANETPELRARYFDFVKGRLG | not soluble
9 | DTTYGCPGEWRCLKAAALGEGKFDEPVRVIGFVRCECPGNTLVPNIGMTMKLSEVKPDAIYFSSCMLRDPGCPYRSAEEWAKIVENAFQIPVKLGTH | not soluble
10 | MPQSLISELHTQYAQFVRKHPHAERDFSDALEDVLTDAGLTYDRVSARIKDWHSLKTKARKKNAQGAFIYPHPWDDVHDIIGVRITTLHSTEIPQIIEALADVFTVERSVDKTALTRISGSFGYGSHHLILKIDDRVKDLNNYVGMVFEVQIRTVLQHAWAEFEHDIRYKRSGDLDPQIDRAFTLAAGLIELADQQFDLIAAIQEPQKHSPNLEVDITAETLPGVIAMLVGSRFPQSRSEHYRWLEELLFAHSITTAAQLKELLNDRDIEAVRKALNYKFKPGQVRIIDDLLLYRYGTKHIEATGETGKNPRLRLPRLNERLRILNKHAPRNRSDLQQS | not soluble
11 | MGSDKIHHHHHHMATEIIYMVKDWFEWHDLYKNEPKLQQRLQIVQEYISYSLNLPEPGLIRVVSVCAGDGRDLLGTLSNHPRAKDVYARLVELNPHLVERGQQTIESLGLTKQIEFINGDATLSSNYLGAVPADIVIVCGVFGNLADEAELNRLLANLSFLSKQGAFVIWTRGHSNGIPHSETVRKFFREYGFEEVNFKLTATGDMGVGIHRYLGESLAAPKEQQFFAFTGVPSKAR | not soluble
12 | MGSDKIHHHHHHMNIEDTLLKQDVWRFIDNTTINPAFDAIQSFATDDTLCRSVGARMAPSTVRGWVHEKTVSLGIQDSKLPDIDKGIAFLQEQGYRVVVRNSGGLAVVLDSGVLNLSMVLPDAERGIAIERGYETMFTLIKDMFVDCNEVIEAKEIEDSYCPGSYDLSIQGEKFAGISQRRMAKGVAVQIYLAIDGDQTTRSELIRDFYTISGKAKQTKYTFPDVNPNVMGSLSDLMKNDISLNGTLVRLFNSLRHYAGELVSGTLTSEELDLFPAYYERLIARNDKVLT | not soluble
13 | GMAEEKKKKLSIIVFSGTIDKLMPVGILTSGAAASGYEVNLFFTFWGLQAITKRSLNSQQPPQIDKNYEQMGPIMMQKMQEMKYPMWHQLVQQAKEIGEVKVFACSTTMEFFGIKREDLAEFVDDVVGVATFLDRAEGGTTLFI | soluble
14 | FLPTSREEMDQLGWDSCDVIIVTGDAYVDHPSFGMAIIGRLLEAQGFRVGIIAQPEWQTKDAFMTLGKPNLFFGVTAGNMDSMINRYTADKKIRHDDAYTPNNKGGMRPDRCSLVYSQRCREAYKDVPIVLGGIEASLRRVAHYDYWSDKVRRSILLDAKADILLFGNAERALVEVAHRLANGESINKMVDIRGTAVNLAQVPEHFKIIDSTRIDQPNKPFVPSNPYEVETQCATKGDEKEEAQPITIRPSRHDAKTTAVRLPSFEKLVNDRILYAHASRVLHLETNPYSGRALVQRHGDRELWVNQAPIPLTTEEMDFVFGLYYARVPHPKYGDAKIPAYDMIKTSVNIMRGCF | not soluble
15 | MYFPSGSDPFAVGEDLGVWAPADHQRIIAKLTTGLGVLFYHTKAIHLEPLPETMLDDAKASLVPDLSLVDNESSETPIIIEVCKTAGLKGDLRKVIQLIDDGIYGIREGFVYNYKTQQWLRYRFGDGGLTTESSFSEILNLDLNTFL | not soluble
16 | SLREMKHLRSIEQEIKMSIPSQEVPTIEDVVEKQKESWKKQIAHRIEKGSNQKHLFEQMTEELMAEYDSKEVISALLQLNYAMDTAPEDAGYSFGETGGAKGMVRFFINVGRNVNMSPKILVEEIAELVGIPGKAIGRIDIFEKFTFVEVPEEVAPFVYEALRYSRINGARVNLEPAKPRPKRESQRRTFQK | soluble
17 | MGSDKIHHHHHHMKAILIDDDQPTLFILNKMLAKIPRVEIVGEFLNAGDAYHFLKHNPVELAFVDIKMPGESGLDFAWRSLAEFPDLYVVFLTAYKDYAVEAFEVQAFDYIVKPIQQERLERTVSRVLQRKAAGISSRNTVEQAKVLFVYCLGGLDLRNTNDDFVMISSSKGQELFAYLLVHRERLTSKWRIMEDVFQGMSPQNAETYLNTTVYKLRKVLEQYGKRSAIVVASESYVMEIKDFYIDFIEFENKVRTLPSITEANLQEAIQTFHLFAGELFGDKDYQWSLAEKERLGDIYCSFAKKLGRYLLENQNSALALQVFKKLVAINELDEESHCFLLQVYAAQNDLPSLIRHYDRYVQLLQRELAISPSNRTAQLFLSLKKSLL | not soluble
18 | MAHHHHHHMGFLDGKRILLTGLLSNRSIAYGIAKACKREGAELAFTYVGDRFKDRITEFAAEFGSELVFPCDVADDAQIDALFASLKTHWDSLDGLVHSIGFAPREAIAGDFLDGLTRENFRIAHDISAYSFPALAKAALPMLSDDASLLTLSYLGAERAIPNYNTMGLAKAALEASVRYLAVSLGAKGVRVNAISAGPIKTLAASGIKSFGKILDFVESNSPLKRNVTIEQVGNAGAFLLSDLASGVTAEVMHVDSGFNAVVGGMAGLEE | soluble
19 | MAHHHHHHMETIQELILSEENKTNIAVLNLGTNDRRNAVLILETALHLVEKYLGKIINTSYLYETVPEYIVLDKKESCEKINKDCRIYDVNYINELMQNLEESKYEENKELIDKCEEYETFLKNGKVDNSILKEVNVENYLLECNNIIVKNDEIMKNNLSKYKDKYYTSYFYNLTVVVKTFVNDPLSMLVVIKYIEELMKRENVKEKEKFENRIIDIDILFFNDFTIFMKNIKLEKNMIYKILSKYIHLERDIKNGNDNMSKVNMDKDINLNNNNNIKKKNNNDIDCDCVDQKMNNHVNNKNYINSFRDPQEIINNMVDNIEFLSIPHVYTTHRYSILLCLNDMIPEYKHNVLNNTIRCLYNKYVSRMKEQYNINIKENNKRIYVLKDRISYLKEKTNIVGILNVNYDSFSDGGIFVEPKRAVQRMFEMINEGASVIDIGGESSGPFVIPNPKISERDLVVPVLQLFQKEWNDIKNKIVKCDAKPIISIDTINYNVFKECVDNDLVDILNDISACTNNPEIIKLLKKKNKFYSVVLMHKRGNPHTMDKLTNYDNLVYDIKNYLEQRLNFLVLNGIPRYRILFDIGLGFAKKHDQSIKLLQNIHVYDEYPLFIGYSRKRFIAHCMNDQNVVINTQQKLHDEQQNENKNIVDKSHNWMFQMNYMRKDKDQLLYQKNICGGLAIASYSYYKKVDLIRVHDVLETKSVLDVLTKIDQV | not soluble
20 | MGSDKIHHHHHHGLDRWMSWKTAPYIYDELQDLPYRQVGVVLGTAKYYRTGVINQYYRYRIQGALNAYNSGKVNYLLLSGDNALQSYNEPMTMRRDLIKGGVDPADIVLDYAGFRTLDSIVRTRKVFDTNDFIIITQRFHCERALFIALHMGIQAQCYAVPSPKDMWSVRLREFGARFGALADLYIFKREPRFLGPLIPIPAQQHDVPDDAQSYPAVTPEQLLELQKEK | not soluble
21 | SEITETLCIFIKTPYISEWSLNNAIINAKKYNLNLKVIKIDKIIKNVPERCYLCKKMFFEILTKEKEKYNYDVVVDGTNYDDLFEDRPGLRAKEEFNIGSPFADFKIGKKDILEIAKELNINIPPKET | not soluble
